Columns and labels:
[1] = biological target: T1, full-length 6x-His-tagged human G3BP1 (human, UniProt Q13283 1-466); assay: SPR
[2] = biological target: T1, full-length 6x-His-tagged human G3BP1; assay: FRET; competition with FAM-labeled USP10 FGDF peptide probe

T1 sequence (Q13283 whole entry): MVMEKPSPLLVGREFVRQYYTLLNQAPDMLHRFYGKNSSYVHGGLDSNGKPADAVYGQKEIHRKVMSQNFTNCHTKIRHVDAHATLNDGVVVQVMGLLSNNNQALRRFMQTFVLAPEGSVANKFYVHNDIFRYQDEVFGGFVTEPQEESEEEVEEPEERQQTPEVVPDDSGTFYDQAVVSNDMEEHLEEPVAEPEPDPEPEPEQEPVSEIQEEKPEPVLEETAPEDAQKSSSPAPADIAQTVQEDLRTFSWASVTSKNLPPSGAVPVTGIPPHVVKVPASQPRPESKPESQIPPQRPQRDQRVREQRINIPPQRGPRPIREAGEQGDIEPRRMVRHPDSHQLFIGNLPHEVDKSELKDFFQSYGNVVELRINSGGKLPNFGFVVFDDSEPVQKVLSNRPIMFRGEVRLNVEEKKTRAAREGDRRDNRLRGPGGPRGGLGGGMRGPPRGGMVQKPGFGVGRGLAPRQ

## LTFGDFDEHEVDALASGITFGDFDD [nsP3 25-mer peptide]
[1]
  Kd: 200 nM
[2]
  IC50: 3100 nM

Source: PMC10824102 (2024)
